Source: patent US20230416330A1, “Optimized GIP Peptide Analogues” (Antag Therapeutics ApS, priority 2019, published 2023)
Starred links: 1 amine or outer side, 2 acyl side, 3 side chain; linkers in the order of their positions; H or OH if unused. Non-standard residues stand in square brackets, D forms with d. Groups on a side chain read outwards from the residue. No end group written: not given here. *: point of attachment. C20 diacid = O=C(O)CCCCCCCCCCCCCCCCCCC(=O)*; C18 diacid = O=C(O)CCCCCCCCCCCCCCCCC(=O)*; C16 diacid = O=C(O)CCCCCCCCCCCCCCC(=O)*; γGlu = O=C(O)[C@H](CCC(=O)[*:2])N[*:1]; Adipoyl = O=C(CCCCC(=O)[*:2])[*:1]; Glutaryl = O=C(CCCC(=O)[*:2])[*:1]; Palmitoyl = CCCCCCCCCCCCCCCC(=O)*; Suc = O=C(CCC(=O)[*:2])[*:1]; Nle = CCCC[C@H](N)C(=O)O; AEEA = NCCOCCOCC(=O)O; Aib = CC(C)(N)C(=O)O

T1: human GIP receptor (human, UniProt P48546 22-466)
T1 sequence (looked up): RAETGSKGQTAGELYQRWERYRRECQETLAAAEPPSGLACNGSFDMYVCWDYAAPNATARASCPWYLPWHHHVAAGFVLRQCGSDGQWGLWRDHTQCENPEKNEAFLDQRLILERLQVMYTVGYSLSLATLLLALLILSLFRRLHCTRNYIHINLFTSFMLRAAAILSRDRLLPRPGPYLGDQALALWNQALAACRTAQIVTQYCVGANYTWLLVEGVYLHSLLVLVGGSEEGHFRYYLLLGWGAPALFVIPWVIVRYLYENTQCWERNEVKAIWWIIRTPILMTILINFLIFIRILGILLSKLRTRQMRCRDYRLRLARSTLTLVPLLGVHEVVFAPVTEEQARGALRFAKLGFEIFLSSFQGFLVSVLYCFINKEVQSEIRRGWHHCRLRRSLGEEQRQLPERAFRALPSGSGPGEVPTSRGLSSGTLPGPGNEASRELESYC


Biological target: T1, human GIP receptor
Assay: cell-based or functional assay

Row | Binder | nM (Kb, Gaddum assay, cAMP) [nM] | pKb (Gaddum assay, cAMP)
1 | Suc-GTFISEYSI[Aib]LEKIK([AEEA-AEEA-γGlu-C18 diacid])QQEFVEWLLAQKPSSGAPPPS-OH [AT752] | 0.52 | 9.3
2 | EGTFISDYSIAMDKIK(Palmitoyl)QQDFVEWLLAQKPSSGAPPPS-OH (N-terminus assumed; SMILES CCCCCCCCCCCCCCCC(=O)NCCCC[C@H](NC(=O)[C@@H](NC(=O)[C@H](CCCCN)NC(=O)[C@H](CC(=O)O)NC(=O)[C@H](CCSC)NC(=O)[C@H](C)NC(=O)[C@@H](NC(=O)[C@H](CO)NC(=O)[C@H](Cc1ccc(O)cc1)NC(=O)[C@H](CC(=O)O)NC(=O)[C@H](CO)NC(=O)[C@@H](NC(=O)[C@H](Cc1ccccc1)NC(=O)[C@@H](NC(=O)CNC(=O)[C@@H](N)CCC(=O)O)[C@@H](C)O)[C@@H](C)CC)[C@@H](C)CC)[C@@H](C)CC)C(=O)N[C@@H](CCC(N)=O)C(=O)N[C@@H](CCC(N)=O)C(=O)N[C@@H](CC(=O)O)C(=O)N[C@@H](Cc1ccccc1)C(=O)N[C@H](C(=O)N[C@@H](CCC(=O)O)C(=O)N[C@@H](Cc1c[nH]c2ccccc12)C(=O)N[C@@H](CC(C)C)C(=O)N[C@@H](CC(C)C)C(=O)N[C@@H](C)C(=O)N[C@@H](CCC(N)=O)C(=O)N[C@@H](CCCCN)C(=O)N1CCC[C@H]1C(=O)N[C@@H](CO)C(=O)N[C@@H](CO)C(=O)NCC(=O)N[C@@H](C)C(=O)N1CCC[C@H]1C(=O)N1CCC[C@H]1C(=O)N1CCC[C@H]1C(=O)N[C@@H](CO)C(=O)O)C(C)C) [AT751] | 0.92 | 9
3 | Glutaryl-GTFISEYSI[Aib][Nle]EKIK(C16 diacid)QQEFVEWLLAQKPSSGAPPPS-OH (SMILES CCCC[C@H](NC(=O)C(C)(C)NC(=O)[C@@H](NC(=O)[C@H](CO)NC(=O)[C@H](Cc1ccc(O)cc1)NC(=O)[C@H](CCC(=O)O)NC(=O)[C@H](CO)NC(=O)[C@@H](NC(=O)[C@H](Cc1ccccc1)NC(=O)[C@@H](NC(=O)CNC(=O)CCCC(=O)O)[C@@H](C)O)[C@@H](C)CC)[C@@H](C)CC)C(=O)N[C@@H](CCC(=O)O)C(=O)N[C@@H](CCCCN)C(=O)N[C@H](C(=O)N[C@@H](CCCCNC(=O)CCCCCCCCCCCCCCC(=O)O)C(=O)N[C@@H](CCC(N)=O)C(=O)N[C@@H](CCC(N)=O)C(=O)N[C@@H](CCC(=O)O)C(=O)N[C@@H](Cc1ccccc1)C(=O)N[C@H](C(=O)N[C@@H](CCC(=O)O)C(=O)N[C@@H](Cc1c[nH]c2ccccc12)C(=O)N[C@@H](CC(C)C)C(=O)N[C@@H](CC(C)C)C(=O)N[C@@H](C)C(=O)N[C@@H](CCC(N)=O)C(=O)N[C@@H](CCCCN)C(=O)N1CCC[C@H]1C(=O)N[C@@H](CO)C(=O)N[C@@H](CO)C(=O)NCC(=O)N[C@@H](C)C(=O)N1CCC[C@H]1C(=O)N1CCC[C@H]1C(=O)N1CCC[C@H]1C(=O)N[C@@H](CO)C(=O)O)C(C)C)[C@@H](C)CC) [AT755] | 0.23 | 9.6
4 | EGTFISDYSIAMDKIK(C20 diacid)QQDFVEWLLAQKPSSGAPPPS-OH (N-terminus assumed; SMILES CC[C@H](C)[C@H](NC(=O)[C@H](CO)NC(=O)[C@H](Cc1ccc(O)cc1)NC(=O)[C@H](CC(=O)O)NC(=O)[C@H](CO)NC(=O)[C@@H](NC(=O)[C@H](Cc1ccccc1)NC(=O)[C@@H](NC(=O)CNC(=O)[C@@H](N)CCC(=O)O)[C@@H](C)O)[C@@H](C)CC)C(=O)N[C@@H](C)C(=O)N[C@@H](CCSC)C(=O)N[C@@H](CC(=O)O)C(=O)N[C@@H](CCCCN)C(=O)N[C@H](C(=O)N[C@@H](CCCCNC(=O)CCCCCCCCCCCCCCCCCCC(=O)O)C(=O)N[C@@H](CCC(N)=O)C(=O)N[C@@H](CCC(N)=O)C(=O)N[C@@H](CC(=O)O)C(=O)N[C@@H](Cc1ccccc1)C(=O)N[C@H](C(=O)N[C@@H](CCC(=O)O)C(=O)N[C@@H](Cc1c[nH]c2ccccc12)C(=O)N[C@@H](CC(C)C)C(=O)N[C@@H](CC(C)C)C(=O)N[C@@H](C)C(=O)N[C@@H](CCC(N)=O)C(=O)N[C@@H](CCCCN)C(=O)N1CCC[C@H]1C(=O)N[C@@H](CO)C(=O)N[C@@H](CO)C(=O)NCC(=O)N[C@@H](C)C(=O)N1CCC[C@H]1C(=O)N1CCC[C@H]1C(=O)N1CCC[C@H]1C(=O)N[C@@H](CO)C(=O)O)C(C)C)[C@@H](C)CC) [AT750] | 4.1 | 8.4
5 | EGTFISEYSI[Aib]LEKIK([AEEA-AEEA-γGlu-C18 diacid])QQDFVEWLLAQKPSSGAPPPS-OH (N-terminus assumed; SMILES CC[C@H](C)[C@H](NC(=O)[C@H](CCCCN)NC(=O)[C@H](CCC(=O)O)NC(=O)[C@H](CC(C)C)NC(=O)C(C)(C)NC(=O)[C@@H](NC(=O)[C@H](CO)NC(=O)[C@H](Cc1ccc(O)cc1)NC(=O)[C@H](CCC(=O)O)NC(=O)[C@H](CO)NC(=O)[C@@H](NC(=O)[C@H](Cc1ccccc1)NC(=O)[C@@H](NC(=O)CNC(=O)[C@@H](N)CCC(=O)O)[C@@H](C)O)[C@@H](C)CC)[C@@H](C)CC)C(=O)N[C@@H](CCCCNC(=O)COCCOCCNC(=O)COCCOCCNC(=O)CC[C@H](NC(=O)CCCCCCCCCCCCCCCCC(=O)O)C(=O)O)C(=O)N[C@@H](CCC(N)=O)C(=O)N[C@@H](CCC(N)=O)C(=O)N[C@@H](CC(=O)O)C(=O)N[C@@H](Cc1ccccc1)C(=O)N[C@H](C(=O)N[C@@H](CCC(=O)O)C(=O)N[C@@H](Cc1c[nH]c2ccccc12)C(=O)N[C@@H](CC(C)C)C(=O)N[C@@H](CC(C)C)C(=O)N[C@@H](C)C(=O)N[C@@H](CCC(N)=O)C(=O)N[C@@H](CCCCN)C(=O)N1CCC[C@H]1C(=O)N[C@@H](CO)C(=O)N[C@@H](CO)C(=O)NCC(=O)N[C@@H](C)C(=O)N1CCC[C@H]1C(=O)N1CCC[C@H]1C(=O)N1CCC[C@H]1C(=O)N[C@@H](CO)C(=O)O)C(C)C) [AT754] | 2.2 | 8.7
6 | Adipoyl-GTFISEYSI[Aib]LEKIK([AEEA-AEEA-γGlu-C18 diacid])QQEFVEWLLAQKPSSGAPPPS-OH (SMILES CC[C@H](C)[C@H](NC(=O)[C@H](CCCCN)NC(=O)[C@H](CCC(=O)O)NC(=O)[C@H](CC(C)C)NC(=O)C(C)(C)NC(=O)[C@@H](NC(=O)[C@H](CO)NC(=O)[C@H](Cc1ccc(O)cc1)NC(=O)[C@H](CCC(=O)O)NC(=O)[C@H](CO)NC(=O)[C@@H](NC(=O)[C@H](Cc1ccccc1)NC(=O)[C@@H](NC(=O)CNC(=O)CCCCC(=O)O)[C@@H](C)O)[C@@H](C)CC)[C@@H](C)CC)C(=O)N[C@@H](CCCCNC(=O)COCCOCCNC(=O)COCCOCCNC(=O)CC[C@H](NC(=O)CCCCCCCCCCCCCCCCC(=O)O)C(=O)O)C(=O)N[C@@H](CCC(N)=O)C(=O)N[C@@H](CCC(N)=O)C(=O)N[C@@H](CCC(=O)O)C(=O)N[C@@H](Cc1ccccc1)C(=O)N[C@H](C(=O)N[C@@H](CCC(=O)O)C(=O)N[C@@H](Cc1c[nH]c2ccccc12)C(=O)N[C@@H](CC(C)C)C(=O)N[C@@H](CC(C)C)C(=O)N[C@@H](C)C(=O)N[C@@H](CCC(N)=O)C(=O)N[C@@H](CCCCN)C(=O)N1CCC[C@H]1C(=O)N[C@@H](CO)C(=O)N[C@@H](CO)C(=O)NCC(=O)N[C@@H](C)C(=O)N1CCC[C@H]1C(=O)N1CCC[C@H]1C(=O)N1CCC[C@H]1C(=O)N[C@@H](CO)C(=O)O)C(C)C) [AT753] | 0.23 | 9.6
